From the nanobody polyreactivity screen of Harvey et al. (2022)

assay: yeast display, Sf9 membrane polyspecificity reagent, FACS + sequencing; frameworks hold sequencing errors
Method in brief: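 Using colony PCR, genes from sorted yeast display clones were amplified, then sequenced on MiSeq at 2 × 250 and filtered by CDR length. The clones had been stained with 10% biotinylated, detergent-solubilized Sf9 membrane reagent for 1 hour at 4 °C and sorted by FACS into low and high (top ~1%) gates on anti-HA and streptavidin fluorescence. Polyreactivity labels come from the gate of origin.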

Sequence | polyreactivity (PSR sort gate)
QVQLVESGGGLVQAGGSLRLSCAAYGSTFEYYVMGWYRQAPGKERELVAAISGSGGGTYYADSVKGRFTISRDNAKNTVSLQMNSLKPEDTAVYYCAAVATLEKYDYWGQGNQVTVSS | low polyreactivity
QVQLVESGGGLVQAGGSLRLSCAAYGSTFGHYAMGWDRQAPGKERELVAAISSSGGSTYYADSVKGRFTISRDNAKNTVYLQMNSLKPEDTAVYYCAARYYHYSYAFGYWGQGTQVTVSS | high polyreactivity
QVQLVESGGGLVQAGGSLRLSCAAYGSTFRYNPLGWYRQAPGKETELVAANTSGGGTNSADSVKGRFTISRDNAKNTVYLQMNSLKPEDTAVYYCAAPWGLGSELLKRDYWGQGTQVTVSS | low polyreactivity
QVQLVESGGGLVQAGGSLRLSCAAYGSTFYANAMGWYRQAPGKERELVAAISSGGSTYYADSVKGRFTISRYNAKNTVYLQMNSLKPEDTAVYYCAKPFYSYRYGFGYWGQGTQVTVSS | low polyreactivity
QVQLVESGGGLVQAGGSLRLSCAAYGSTVSSNAMGWYRQAPGKERELVAGISSSDVGTYYADSVKGRFTISRDYANNTVYLEMNSLKPDDTAVYYCNADHTGQFPSKLFPLGDNYWGQGTQVTVSS | low polyreactivity
QVQLVESGGGLVQAGGSLRLSCAAYGYTLYHNAMGWYRQAPGKERELVAAITSSGGRTYYADSVKGRFTISRDNAKNTVYLQMNRLKPDDTAVYYCNAVVWVYSISLSYTGTKYEYWGQGTQVTVSS | high polyreactivity
QVQLVESGGGLVQAGGSLRLSCADSGFIFSLYAMGWYRQAPGKERELVAAISKRGGSTNYADSVKGRFTISRDYAKNTVYLQMNSLKPEDTAVYYCAKARPGFLYDHWVQGTQVTVSS | high polyreactivity
QVQLVESGGGLVQAGGSLRLSCADSGFISGGNDMGWNRQAPGKEREFVAAIDNTGSTYYADSVKGRFTISRDNAKNTVYLQMNSLKPEDSAVYYCNAEVSEDYVDNDFWGQGTQVTVSS | low polyreactivity
QVQLVESGGGLVQAGGSLRLSCADSGFTFDYYTMGWYRQAPGKDRELVAAITYSGGITYYADSVKGRFTISRDNAKNTVYLQMNSLKPEDTAVYYCNARYSPRTGRGRHVTYYYWGQGTQVTVSS | high polyreactivity
QVQLVESGGGLVQAGGSLRLSCADSGFTFISNAKGWYRQAPGKERELVAAISSSGGRTYYADSVKGRFTISRDNAKNTVYLQMNSLKPEDTAVYYCNADRSLLYSRKIEYDYWGQGTQVTVSS | low polyreactivity
QVQLVESGGGLVQAGGSLRLSCADSGFTFYLYAMGWYRQAPGKERALVAAITGSGGSKYYADSVKGRFTISRYNAKNTVYLQMNSLKPEDTAVYYCAAVFKDSRYQYGFGYDYWGQGTQVTVSS | high polyreactivity
QVQLVESGGGLVQAGGSLRLSCADSGGTFKLYAMGWYSQAPAKESELVAAISRRGGSTYYADSVKGRFTISRDNAKNTVYLQMNSLKPDDTAVYYCAAPGPTQSTQRGGYWGQGTQVTVSS | high polyreactivity
QVQLVESGGGLVQAGGSLRLSCADSGIIFLEYAMGWYRQAPGKERELVAAISSDDGSSTYYADSVKGRFTISRDNAKNTVYLQMNSLKPEDTAVYYCAAYGGGGYYYDYEYWGQGTQVTVSS | high polyreactivity
QVQLVESGGGLVQAGGSLRLSCADSGIIFRYYAMGWYRQAPGKERELVADISRRGGSTYYADSVKGRFTISRDNAKNTVYLQMNSLKPEDTAVYYCAAKYRVYNYSPWGPYNYWGQVTQVTVSS | high polyreactivity
QVQLVESGGGLVQAGGSLRLSCADSGIIFYYNAMGWYRQAPGKEREFVAAIDDRGDSTYYADSVKGRFTISRDNAKNTVYLQMNSLKPEDTAVYYCAARDGYLYFDAMDYWGQGTLVTVSS | low polyreactivity
QVQLVESGGGLVQAGGSLRLSCADSGITFYIYAMGWYRQAPGKERELVATISWSDGRTYYADSVKGRFTISRDNAKNTVYLQMNRLKPEDTAVYYCAADWWYYQFDYEYWGQGTQVTVSS | low polyreactivity
QVQLVESGGGLVQAGGSLRLSCADSGITLVYDGMGWDIQAPGKERELVAAISWTGGSTFYADSVKGLFTISLDNAKKTVYLQMNSLKPEDTAVYYCAADRGYFYSRIQVDSDYWGQGTQVTVSS | low polyreactivity
QVQLVESGGGLVQAGGSLRLSCADSGLIFYYYAMGWYRHAPGKERELVAAISYNGGTTYYADSVKGRFTISRDNAKNTVYLQMNSLNPEDTAVYYCAAEQLVSGYDYWGQGTQVTVSS | low polyreactivity
QVQLVESGGGLVQAGGSLRLSCADSGNIFGTYAMGWSRQAPGKERELVANISNDDRTNYADSVKGRFTISRDNAKNTVYLQMNSLKPEDTAVYYCAVEYPSIAYRKSSKTFDYWGQGTQVTVSS | low polyreactivity
QVQLVESGGGLVQAGGSLRLSCADSGNIFYKNTMGWYRQAPGKERELVAAISVSGGGTYYADSVKGRFTISRDNAKNTVYLQMNSLKPEDTAVYYCAATWRQHPGSMGYWGLGTQVTVSS | high polyreactivity
QVQLVESGGGLVQAGGSLRLSCADSGRIFGLNAMGWYRQAPGKEREFVAAIRWRGGSTYYADSVKGRFTISRDNAKNTVYLQMNSLKPEDTAVYYCAADRNLGVSRYGYWGQGTQVTVSS | high polyreactivity
QVQLVESGGGLVQAGGSLRLSCADSGRIFNGYGMGWYRQAPGKERELVATISSSGDSTYYADSVKGRFTISRDNAKNTVYLQMNSLKPEDTAVYYCAKRARYKFGYWGQGTQVTVSS | high polyreactivity

Sequence | polyreactivity (PSR sort gate)
QVQLVESGGGLVQAGGSLRLSCADSGRIFVHHDMGRYRQAPGKVRELVATITSGGSTYYADSVKGRFTISRDNAKNTVYLQMNSLKPEDTAVYYCAADSWDYDSRMDYWGQGTQVTVSS | low polyreactivity
QVQLVESGGGLVQAGGSLRLSCADSGRNYIGNAMGWYIHAPGKEPELVAAISSSGGNTYYADSVKGRFTISRDNAKNTVYLQMTSLNPEDNAVYYCAVEVRTLVTYGRSEYYWGQGTKVTVSS | high polyreactivity
QVQLVESGGGLVQAGGSLRLSCADSGRTFCKYVMRWYRQAPGKERELVAVISRPAGSTYYADSVKGRFTISRDNAKNTVYLQMNSLKPEDTAVYYCAKRPKNKPVLGDYDHWGQGTQVTVSS | low polyreactivity
QVQLVESGGGLVQAGGSLRLSCADSGRTFSPYAMGWYRQAPGKDRELVAAITSGGRTNFADSVKGRFTISRDNAKNTVYLQMNSLKPEDTAVYYCAARSGRYRWTRFDYWGQGTQVTVSS | low polyreactivity
QVQLVESGGGLVQAGGSLRLSCADSGRTFSSYAMGWYRQAPGKERELVARISSSGGRTSYADSVKGRFTISRDNAKNTVYLQMNSLKPEDTAVYYCAKTYHWLYDYWGQGTQVTVSS | high polyreactivity
QVQLVESGGGLVQAGGSLRLSCADSGRTFYRYAMVWYRQSPGKERELVAAITTSGGSTYYADSVKGRFTISRDNAKNTVYLQMNSLKPEDTAVYYCAATYYGYHIRDDYWGQGTQVTVSS | low polyreactivity
QVQLVESGGGLVQAGGSLRLSCADSGRTFYYYAMGWYRQAPGKERELVASITYYADSVKGRFTISRDNAKNTVYLQMNSLKPVDTAVYYCAKDLYSNDLYRRYDYWGQGTQVTVSS | low polyreactivity
QVQLVESGGGLVQAGGSLRLSCADSGSIFRSYDMGRYSQAPGKERELVAGISYSGGSTYYADSVKRRFTISRDNAKNTVYLQMNSLKPEDTAVYYCNVDGGTYFFFVGAWGEYDYWGQGTQVTVSS | low polyreactivity
QVQLVESGGGLVQAGGSLRLSCADSGSIFYYNAMGWYRQAPGKERELVAAISVSGGSTYYADSVKGRFTISRDNAKNTVYLQMNSLKPEDTAVYYCAAEWLYYYWLPGRADYLEYDYWGQGTQVTVSS | low polyreactivity
QVQLVESGGGLVQAGGSLRLSCADSGSILGNAMVWYRQAPGKERELVAAITRGVSTYYADSVKGRFTISRDNAKNTVYLQMNSLKPEDTAVYYCYKTYVRGVHGVYLPITSYDYWGQGTQVTVSS | low polyreactivity
QVQLVESGGGLVQAGGSLRLSCADSGSILVAKGMGWYRQAPGKESELVAGITTRGGNTYYADSVKGRFTISRDNAKNTVYLQMNSLKPEDTAVYYCAADHLSYRRRYEYWGQGTQVTVSS | low polyreactivity
QVQLVESGGGLVQAGGSLRLSCADSGSTFEYNDMGWYRQEPGKERELVASSTYYADSVQGRFTISRDNAKNTVYLQMNSLKPEDTAVYFCAREQGVNRNHDYWGQGTLVTVSS | low polyreactivity
QVQLVESGGGLVQAGGSLRLSCADSGSTFFRYAMGWYRQAPGKERELVAAISKSGASTYYADSVKGRFTISRDNAKNTVYLQMNSLKPEDTAVYYCNADVKKSSAREWQYGYDYWGQGTQVTVSS | low polyreactivity
QVQLVESGGGLVQAGGSLRLSCADSGSTFLYYGMGWYRQAPGKERELVAGIDGTGSSTYYADSVKGRFTISRDNAKNTVYLQMNSLKPEDTAVYYCAKRYPRYRSRYYYWGQGTQVTVSS | low polyreactivity
QVQLVESGGGLVQAGGSLRLSCADSGSTFPGYTMGWYRQAPGKERELVAAIDGSAGDTYYADSVKGRVTISRDNAKNTVYLQMNSLKPEDTEVYYCAADGPYDYSPWLMYYWGQGTQVTVSS | low polyreactivity
QVQLVESGGGLVQAGGSLRLSCADSGSTFRFNAMGWYRQAPGKERDLVAAISQSGGSTRYADSVKGRFTISRDNAKNTVYLQMNSLKPEDTAVYYCAARRRWLPGYAWQVAYDSWGQGTQVTVSS | high polyreactivity
QVQLVESGGGLVQAGGSLRLSCADSGSTFTRYAIGWYRQAPGKEMEFVAAISWSGGITYYADSVKGRFTISRDNAKNTVYFQMKSLKPEDTAVYYCAAKRRYTRGGYGVDYWGQGTQVTVSS | high polyreactivity
QVQLVESGGGLVQAGGSLRLSCADSGSTFVLNAMGWYRQAPGKERELVAAISRCGASTYYADSVKGRFTISRDNAKNTVYLQMNSLKPEDTAVYYCNASGYGPGVVIYLVLYDYWGQGTQVTVSS | low polyreactivity
QVQLVESGGGLVQAGGSLRLSCADSGSTFWFYAMGWYRQAPGKERELVAVISNSGSTYYADSVKGRYTISRDNAKNTVSLQMNSLKPEDTAVYYCNKDGGGDSYWYVYWGQGTQVTVSS | low polyreactivity
QVQLVESGGGLVQAGGSLRLSCADSGVIFVGYAMGGYRQAHGKERELVASIDGRVGSTYYADSVKGRFTISRDNAKITVYLQMNSLKPEDTAVYYCAAGGRAVRIYWGYYRTSYDYWGQGTQVTVSS | low polyreactivity
QVQLVESGGGLVQAGGSLRLSCADSGYIFYPYTMGWYRQAPGKEMELDAAITWSGSTYYADSVKGRFTISRDNAKNTVYLQMNSLKPEDTAVYYCAADFDSYDSYTYLQYDYWGQGTQVTVSS | low polyreactivity
